Experimental data: US20190048340 (CRISPR Therapeutics AG, published 2019)

Target: Cpf1 (FnCpf1, FTN_1397) wild type (Francisella novicida U112, UniProt A0Q7Q2 SEQ:1-1300)
Experiment: EMSA; PAM YTN (TTA); 37 C
Conditions: tags: N-terminal 6xHis (pET-16b); label: 5'-32P; repeat hairpin

Cpf1 (FnCpf1, FTN_1397) wild type, sequence (A0Q7Q2 whole entry): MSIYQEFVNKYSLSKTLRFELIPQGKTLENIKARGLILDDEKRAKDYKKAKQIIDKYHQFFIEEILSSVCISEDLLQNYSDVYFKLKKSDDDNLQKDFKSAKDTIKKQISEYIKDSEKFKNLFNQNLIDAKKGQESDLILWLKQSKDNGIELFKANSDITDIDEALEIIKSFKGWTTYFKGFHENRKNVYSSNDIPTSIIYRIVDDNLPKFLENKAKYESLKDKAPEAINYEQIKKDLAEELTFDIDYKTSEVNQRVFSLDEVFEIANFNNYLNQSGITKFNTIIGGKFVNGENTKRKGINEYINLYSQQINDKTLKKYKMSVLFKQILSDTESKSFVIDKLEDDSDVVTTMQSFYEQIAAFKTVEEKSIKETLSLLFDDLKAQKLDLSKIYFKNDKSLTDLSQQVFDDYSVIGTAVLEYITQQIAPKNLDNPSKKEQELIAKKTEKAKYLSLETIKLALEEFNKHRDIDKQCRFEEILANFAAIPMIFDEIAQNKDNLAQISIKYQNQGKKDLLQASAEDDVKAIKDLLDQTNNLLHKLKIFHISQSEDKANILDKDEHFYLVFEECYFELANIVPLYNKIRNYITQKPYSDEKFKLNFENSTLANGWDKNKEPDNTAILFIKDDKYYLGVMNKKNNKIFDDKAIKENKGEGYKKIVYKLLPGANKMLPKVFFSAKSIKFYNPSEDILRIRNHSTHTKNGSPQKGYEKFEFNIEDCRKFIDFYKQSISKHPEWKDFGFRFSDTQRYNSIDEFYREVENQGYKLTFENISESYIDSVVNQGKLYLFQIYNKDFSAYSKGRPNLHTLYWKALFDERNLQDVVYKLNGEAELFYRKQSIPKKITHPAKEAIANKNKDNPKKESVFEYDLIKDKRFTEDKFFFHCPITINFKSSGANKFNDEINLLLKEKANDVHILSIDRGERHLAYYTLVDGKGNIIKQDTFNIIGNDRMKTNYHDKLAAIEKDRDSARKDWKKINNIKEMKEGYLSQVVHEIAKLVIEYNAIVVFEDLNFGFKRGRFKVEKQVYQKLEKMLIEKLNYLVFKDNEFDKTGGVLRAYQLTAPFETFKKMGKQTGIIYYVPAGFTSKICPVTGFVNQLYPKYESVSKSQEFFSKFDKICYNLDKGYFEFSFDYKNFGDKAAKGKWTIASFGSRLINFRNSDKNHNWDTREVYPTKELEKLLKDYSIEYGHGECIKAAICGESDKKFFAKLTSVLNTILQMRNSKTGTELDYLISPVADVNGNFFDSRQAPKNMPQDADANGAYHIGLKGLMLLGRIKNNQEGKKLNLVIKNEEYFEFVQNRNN

B1: crRNA-sp5 repeat-spacer full-length (RNA 4); ref is antisense T7 transcription template ; Psp5 oligonucleotide duplex (ssRNA ; dsDNA)
RNA: GGGUCUAAGAACUUUAAAUAAUUUCUACUGUUGUAGAUAGAUUAAAAGGUAAUUCUAUCUUGUUGAG
DNA 1: AGCTGTAGCAAATATTAATCATATAGAAGAAAGCTCAGATCTCAACAAGATAGAATTACCTTTTAATCTTAAATTATTATATCCAGAAACTATTGATGGTAATTTACTTATC
DNA 2: AGCTGATAAGTAAATTACCATCAATAGTTTCTGGATATAATAATTTAAGATTAAAAGGTAATTCTATCTTGTTGAGATCTGAGCTTTCTTCTATATGATTAATATTTGCTAC
Work on B1 yielded a Kd of 50 nM.
